Columns and labels:
[1] = molecular target: HLA-B*3501 (human); settings: remark: other sources report otherwise
[2] = molecular target: HLA-B*3501 (human); settings: remark: other sources report otherwise; remark: listed apart in the source

EVDPIGHLY [MAGE-A3 peptide 168-176 …]
Stability (half-life of the peptide on HLA-B*35) [1]: > 6 h | RA (relative affinity) [2]: 2.3
